Test results from IntAct's records for PubMed 21525957.

B1: Protein phosphatase Slingshot homolog 1 (Homo sapiens), Q8WYL5 (parent)
chain: MALVTLQRSPTPSAASSSASNSELEAGSEEDRKLNLSLSESFFMVKGAALFLQQGSSPQGQRSLQHPHKHAGDLPQHLQVMINLLRCEDRIKLAVRLESAWADRVRYMVVVYSSGRQDTEENILLGVDFSSKESKSCTIGMVLRLWSDTKIHLDGDGGFSVSTAGRMHIFKPVSVQAMWSALQVLHKACEVARRHNYFPGGVALIWATYYESCISSEQSCINEWNAMQDLESTRPDSPALFVDKPTEGERTERLIKAKLRSIMMSQDLENVTSKEIRNELEKQMNCNLKELKEFIDNEMLLILGQMDKPSLIFDHLYLGSEWNASNLEELQGSGVDYILNVTREIDNFFPGLFAYHNIRVYDEETTDLLAHWNEAYHFINKAKRNHSKCLVHCKMGVSRSASTVIAYAMKEFGWPLEKAYNYVKQKRSITRPNAGFMRQLSEYEGILDASKQRHNKLWRQQTDSSLQQPVDDPAGPGDFLPETPDGTPESQLPFLDDAAQPGLGPPLPCCFRRLSDPLLPSPEDETGSLVHLEDPEREALLEEAAPPAEVHRPARQPQQGSGLCEKDVKKKLEFGSPKGRSGSLLQVEETEREEGLGAGRWGQLPTQLDQNLLNSENLNNNSKRSCPNGMEDDAIFGILNKVKPSYKSCADCMYPTASGAPEASRERCEDPNAPAICTQPAFLPHITSSPVAHLASRSRVPEKPASGPTEPPPFLPPAGSRRADTSGPGAGAALEPPASLLEPSRETPKVLPKSLLLKNSHCDKNPPSTEVVIKEESSPKKDMKPAKDLRLLFSNESEKPTTNSYLMQHQESIIQLQKAGLVRKHTKELERLKSVPADPAPPSRDGPASRLEASIPEESQDPAALHELGPLVMPSQAGSDEKSEAAPASLEGGSLKSPPPFFYRLDHTSSFSKDFLKTICYTPTSSSMSSNLTRSSSSDSIHSVRGKPGLVKQRTQEIETRLRLAGLTVSSPLKRSHSLAKLGSLTFSTEDLSSEADPSTVADSQDTTLSESSFLHEPQGTPRDPAATSKPSGKPAPENLKSPSWMSKS

Variants of: B1
Conditions: with cof1_human CFL1, P23528
Sequence of cof1_human CFL1, P23528 (P23528 whole entry): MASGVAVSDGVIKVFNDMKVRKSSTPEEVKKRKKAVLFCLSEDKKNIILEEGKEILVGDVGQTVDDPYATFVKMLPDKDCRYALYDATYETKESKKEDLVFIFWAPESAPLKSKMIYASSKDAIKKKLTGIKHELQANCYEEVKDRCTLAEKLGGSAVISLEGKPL

effect of a mutation on the interaction	Variant
disrupting interaction	S402E

Variants of: B1
Conditions: with cof1_human CFL1, P23528
Remark: another data set of the same source

effect of a mutation on the interaction	Variant
disrupting interaction	S402D
